Test results reported in patent publication US7183387 (Genentech, dated 2007).

T1: human FcγRIIB α subunit extracellular domain-6His-GST fusion (human, UniProt P31994 43-217)
T1 construct: not shown: glutathione S-transferase (GST)
T1 sequence: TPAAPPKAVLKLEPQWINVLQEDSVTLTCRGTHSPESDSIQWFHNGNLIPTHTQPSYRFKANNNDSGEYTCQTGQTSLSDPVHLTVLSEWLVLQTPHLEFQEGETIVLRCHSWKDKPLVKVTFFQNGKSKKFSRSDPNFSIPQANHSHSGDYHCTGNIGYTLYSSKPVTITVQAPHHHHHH

T2: human FcγRIIA-R131 α subunit extracellular domain-6His-GST fusion (human, UniProt P12318 34-217)
T2 construct: also called FcγRIIA-Arg131; not shown: glutathione S-transferase (GST)
T2 sequence: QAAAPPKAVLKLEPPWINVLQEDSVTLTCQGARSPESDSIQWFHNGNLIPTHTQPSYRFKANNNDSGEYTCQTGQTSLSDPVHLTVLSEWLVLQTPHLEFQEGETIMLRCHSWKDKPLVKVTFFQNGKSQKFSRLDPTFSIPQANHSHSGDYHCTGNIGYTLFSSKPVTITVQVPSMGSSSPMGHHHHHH

B1: E27 IgG1 variant K290(307)S (antibody)
heavy: not shown
light: DIQLTQSPSSLSASVGDRVTITCRASKPVDGEGDSYLNWYQQKPGKAPKLLIYAASYLESGVPSRFSGSGSGTDFTLTISSLQPEDFATYYCQQSHEDPYTFGQGTKVEIKRTVAAPSVFIFPPSDEQLKSGTASVVCLLNNFYPREAKVQWKVDNALQSGNSQESVTEQDSKDSTYSLSSTLTLSKADYEKHKVYACEVTHQGLSSPVTKSFNRGEC
notes: also called IG2 75
B2: E27 IgG1 variant K334(353)D (antibody)
heavy: not shown
light: DIQLTQSPSSLSASVGDRVTITCRASKPVDGEGDSYLNWYQQKPGKAPKLLIYAASYLESGVPSRFSGSGSGTDFTLTISSLQPEDFATYYCQQSHEDPYTFGQGTKVEIKRTVAAPSVFIFPPSDEQLKSGTASVVCLLNNFYPREAKVQWKVDNALQSGNSQESVTEQDSKDSTYSLSSTLTLSKADYEKHKVYACEVTHQGLSSPVTKSFNRGEC
notes: also called IG2 140
B3: E27 IgG1 variant K334(353)Q (antibody)
heavy: not shown
light: DIQLTQSPSSLSASVGDRVTITCRASKPVDGEGDSYLNWYQQKPGKAPKLLIYAASYLESGVPSRFSGSGSGTDFTLTISSLQPEDFATYYCQQSHEDPYTFGQGTKVEIKRTVAAPSVFIFPPSDEQLKSGTASVVCLLNNFYPREAKVQWKVDNALQSGNSQESVTEQDSKDSTYSLSSTLTLSKADYEKHKVYACEVTHQGLSSPVTKSFNRGEC
B4: E27 IgG1 variant K322(341)N (antibody)
heavy: not shown
light: DIQLTQSPSSLSASVGDRVTITCRASKPVDGEGDSYLNWYQQKPGKAPKLLIYAASYLESGVPSRFSGSGSGTDFTLTISSLQPEDFATYYCQQSHEDPYTFGQGTKVEIKRTVAAPSVFIFPPSDEQLKSGTASVVCLLNNFYPREAKVQWKVDNALQSGNSQESVTEQDSKDSTYSLSSTLTLSKADYEKHKVYACEVTHQGLSSPVTKSFNRGEC
notes: also called IG2 207
B5: E27 IgG1 variant K326(345)E (antibody)
heavy: not shown
light: DIQLTQSPSSLSASVGDRVTITCRASKPVDGEGDSYLNWYQQKPGKAPKLLIYAASYLESGVPSRFSGSGSGTDFTLTISSLQPEDFATYYCQQSHEDPYTFGQGTKVEIKRTVAAPSVFIFPPSDEQLKSGTASVVCLLNNFYPREAKVQWKVDNALQSGNSQESVTEQDSKDSTYSLSSTLTLSKADYEKHKVYACEVTHQGLSSPVTKSFNRGEC
notes: also called IG2 212
B6: E27 IgG1 variant K334(353)N (antibody)
heavy: not shown
light: DIQLTQSPSSLSASVGDRVTITCRASKPVDGEGDSYLNWYQQKPGKAPKLLIYAASYLESGVPSRFSGSGSGTDFTLTISSLQPEDFATYYCQQSHEDPYTFGQGTKVEIKRTVAAPSVFIFPPSDEQLKSGTASVVCLLNNFYPREAKVQWKVDNALQSGNSQESVTEQDSKDSTYSLSSTLTLSKADYEKHKVYACEVTHQGLSSPVTKSFNRGEC
B7: E27 IgG1 variant K326(345)Q (antibody)
heavy: not shown
light: DIQLTQSPSSLSASVGDRVTITCRASKPVDGEGDSYLNWYQQKPGKAPKLLIYAASYLESGVPSRFSGSGSGTDFTLTISSLQPEDFATYYCQQSHEDPYTFGQGTKVEIKRTVAAPSVFIFPPSDEQLKSGTASVVCLLNNFYPREAKVQWKVDNALQSGNSQESVTEQDSKDSTYSLSSTLTLSKADYEKHKVYACEVTHQGLSSPVTKSFNRGEC
notes: also called IG2 210
B8: E27 IgG1 variant K322(341)Q (antibody)
heavy: not shown
light: DIQLTQSPSSLSASVGDRVTITCRASKPVDGEGDSYLNWYQQKPGKAPKLLIYAASYLESGVPSRFSGSGSGTDFTLTISSLQPEDFATYYCQQSHEDPYTFGQGTKVEIKRTVAAPSVFIFPPSDEQLKSGTASVVCLLNNFYPREAKVQWKVDNALQSGNSQESVTEQDSKDSTYSLSSTLTLSKADYEKHKVYACEVTHQGLSSPVTKSFNRGEC
B9: E27 IgG1 variant K322(341)E (antibody)
heavy: not shown
light: DIQLTQSPSSLSASVGDRVTITCRASKPVDGEGDSYLNWYQQKPGKAPKLLIYAASYLESGVPSRFSGSGSGTDFTLTISSLQPEDFATYYCQQSHEDPYTFGQGTKVEIKRTVAAPSVFIFPPSDEQLKSGTASVVCLLNNFYPREAKVQWKVDNALQSGNSQESVTEQDSKDSTYSLSSTLTLSKADYEKHKVYACEVTHQGLSSPVTKSFNRGEC
B10: E27 IgG1 variant K320(339)Q (antibody)
heavy: not shown
light: DIQLTQSPSSLSASVGDRVTITCRASKPVDGEGDSYLNWYQQKPGKAPKLLIYAASYLESGVPSRFSGSGSGTDFTLTISSLQPEDFATYYCQQSHEDPYTFGQGTKVEIKRTVAAPSVFIFPPSDEQLKSGTASVVCLLNNFYPREAKVQWKVDNALQSGNSQESVTEQDSKDSTYSLSSTLTLSKADYEKHKVYACEVTHQGLSSPVTKSFNRGEC
notes: also called IG2 204
B11: E27 IgG1 variant K320(339)M (antibody)
heavy: not shown
light: DIQLTQSPSSLSASVGDRVTITCRASKPVDGEGDSYLNWYQQKPGKAPKLLIYAASYLESGVPSRFSGSGSGTDFTLTISSLQPEDFATYYCQQSHEDPYTFGQGTKVEIKRTVAAPSVFIFPPSDEQLKSGTASVVCLLNNFYPREAKVQWKVDNALQSGNSQESVTEQDSKDSTYSLSSTLTLSKADYEKHKVYACEVTHQGLSSPVTKSFNRGEC
notes: also called IG2 202
B12: E27 IgG1 variant K326(345)N (antibody)
heavy: not shown
light: DIQLTQSPSSLSASVGDRVTITCRASKPVDGEGDSYLNWYQQKPGKAPKLLIYAASYLESGVPSRFSGSGSGTDFTLTISSLQPEDFATYYCQQSHEDPYTFGQGTKVEIKRTVAAPSVFIFPPSDEQLKSGTASVVCLLNNFYPREAKVQWKVDNALQSGNSQESVTEQDSKDSTYSLSSTLTLSKADYEKHKVYACEVTHQGLSSPVTKSFNRGEC
notes: also called IG2 209
B13: E27 IgG1 variant K320(339)E (antibody)
heavy: not shown
light: DIQLTQSPSSLSASVGDRVTITCRASKPVDGEGDSYLNWYQQKPGKAPKLLIYAASYLESGVPSRFSGSGSGTDFTLTISSLQPEDFATYYCQQSHEDPYTFGQGTKVEIKRTVAAPSVFIFPPSDEQLKSGTASVVCLLNNFYPREAKVQWKVDNALQSGNSQESVTEQDSKDSTYSLSSTLTLSKADYEKHKVYACEVTHQGLSSPVTKSFNRGEC
notes: also called IG2 205
B14: E27 IgG1 variant K326(345)D (antibody)
heavy: not shown
light: DIQLTQSPSSLSASVGDRVTITCRASKPVDGEGDSYLNWYQQKPGKAPKLLIYAASYLESGVPSRFSGSGSGTDFTLTISSLQPEDFATYYCQQSHEDPYTFGQGTKVEIKRTVAAPSVFIFPPSDEQLKSGTASVVCLLNNFYPREAKVQWKVDNALQSGNSQESVTEQDSKDSTYSLSSTLTLSKADYEKHKVYACEVTHQGLSSPVTKSFNRGEC
notes: also called IG2 211
B15: E27 IgG1 variant K322(341)R (antibody)
heavy: not shown
light: DIQLTQSPSSLSASVGDRVTITCRASKPVDGEGDSYLNWYQQKPGKAPKLLIYAASYLESGVPSRFSGSGSGTDFTLTISSLQPEDFATYYCQQSHEDPYTFGQGTKVEIKRTVAAPSVFIFPPSDEQLKSGTASVVCLLNNFYPREAKVQWKVDNALQSGNSQESVTEQDSKDSTYSLSSTLTLSKADYEKHKVYACEVTHQGLSSPVTKSFNRGEC
notes: also called IG2 155
B16: E27 IgG1 variant K334(353)E (antibody)
heavy: not shown
light: DIQLTQSPSSLSASVGDRVTITCRASKPVDGEGDSYLNWYQQKPGKAPKLLIYAASYLESGVPSRFSGSGSGTDFTLTISSLQPEDFATYYCQQSHEDPYTFGQGTKVEIKRTVAAPSVFIFPPSDEQLKSGTASVVCLLNNFYPREAKVQWKVDNALQSGNSQESVTEQDSKDSTYSLSSTLTLSKADYEKHKVYACEVTHQGLSSPVTKSFNRGEC
B17: E27 IgG1 variant K334(353)L (antibody)
heavy: not shown
light: DIQLTQSPSSLSASVGDRVTITCRASKPVDGEGDSYLNWYQQKPGKAPKLLIYAASYLESGVPSRFSGSGSGTDFTLTISSLQPEDFATYYCQQSHEDPYTFGQGTKVEIKRTVAAPSVFIFPPSDEQLKSGTASVVCLLNNFYPREAKVQWKVDNALQSGNSQESVTEQDSKDSTYSLSSTLTLSKADYEKHKVYACEVTHQGLSSPVTKSFNRGEC
notes: also called IG2 221
B18: E27 IgG1 variant K326(345)S (antibody)
heavy: not shown
light: DIQLTQSPSSLSASVGDRVTITCRASKPVDGEGDSYLNWYQQKPGKAPKLLIYAASYLESGVPSRFSGSGSGTDFTLTISSLQPEDFATYYCQQSHEDPYTFGQGTKVEIKRTVAAPSVFIFPPSDEQLKSGTASVVCLLNNFYPREAKVQWKVDNALQSGNSQESVTEQDSKDSTYSLSSTLTLSKADYEKHKVYACEVTHQGLSSPVTKSFNRGEC

How the values were obtained:
Experiment in all cases: ELISA, IgG:IgE hexamers on receptor-GST
[1] = target: T1, human FcγRIIB α subunit extracellular …
[2] = target: T2, human FcγRIIA-R131 α subunit …
[3] = target: T3, human FcγRIIIA-F158 α subunit extracellular domain-6His-GST fusion (human, UniProt P08637 17-208)
T3 construct: also called FcγRIIIA-Phe158; not shown: glutathione S-transferase (GST)
T3 sequence (P08637 other isoform, or with tags, fused parts or gaps, form in doubt): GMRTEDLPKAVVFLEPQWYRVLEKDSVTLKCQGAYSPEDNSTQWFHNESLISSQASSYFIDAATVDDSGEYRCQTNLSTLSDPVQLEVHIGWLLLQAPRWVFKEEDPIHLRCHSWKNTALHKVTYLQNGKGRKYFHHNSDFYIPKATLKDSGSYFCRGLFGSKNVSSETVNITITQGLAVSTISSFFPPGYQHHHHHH

Row | Binder | ratio to native IgG1 [1] | ratio to native IgG1 [2] | ratio to native IgG1 [3]
1 | B1 | 1.34 | 1.27 | 1.26
2 | B2 | 0.4 | 0.51 | 1.13
3 | B3 | 1.1 | 1.08 | 1.23
4 | B4 | 0.36 | 0.57 | 0.04
5 | B5 | 1.47 | 1.34 | 1.26
6 | B6 | 1.29 | 1.16 | 1.11
7 | B7 | 1.41 | 1.36 | 1.15
8 | B8 | 0.92 | 0.87 | 0.78
9 | B9 | 1.34 | 1.38 | 0.81
10 | B10 | 1.12 | 1.23 | 1.17
11 | B11 | 1.4 | 1.34 | 1.27
12 | B12 | 1 | 1.04 | 1.27
13 | B13 | 1.34 | 1.29 | 1.12
14 | B14 | 2.01 | 1.68 | 1.36
15 | B15 | 0.87 | 0.87 | 0.92
16 | B16 | 0.72 | 0.74 | 1.3
17 | B17 | 1.09 | 1.05 | 1.38
18 | B18 | 1.62 | 1.44 | 1.37
